Consider 50 sequences from the domain aggregation screens of Martell et al. (2025).

The data set can be described thus: soluble fraction after stress (log2 fold change); higher = more stays soluble; pooled small domains, quantitative proteomics. Particulars: stress: pH 4. An outline of the steps:
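Following acid stress at pH 4, the amount of each small protein domain still soluble was measured in pooled custom libraries by high-throughput quantitative proteomics. Its fold change, on a log2 scale, is higher when more of the domain stayed soluble. This fold change is taken as a measure of aggregation propensity.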

Consider “HMSPRQVTAVRSGSPMPVLPGEDWRLYDASGALVARGSGAAPIPKSTGLLRLNSEGLDGLADRWIWVL”, for which the “soluble fraction (log2)” value is -0.154.

Regarding “HMSPSRRENLTAAAKEYFVNTQIRHKTFGNGVIIKRSGNIAAIRFDNGTIKQIDLIAALQAKVLSIL”, the “soluble fraction (log2)” value is -0.512.

Regarding “HMSPSTNKTFSFSKENISIGQTVFIKKLNQNATVLTLPNKSNQLQVQFGVITMNVKLEDLALPTN”, the “soluble fraction (log2)” value is -0.0832.

Regarding “HMSPTSSRAAQARIRKMIESESPLKPISDSQLAARLGEEGISIARRTVAKYREQMNILPASQRRGV”, the “soluble fraction (log2)” value was -0.0284.

For “HMSPVPRIEIELTSSKEDGSWTWRAVGAREPRGSLDGALLAKPAAVGDVLRVETDQFLDGMTVTAILPPRD”, the “soluble fraction (log2)” value is -0.6.

Consider “HMSQAVEISSVKTQIDGKSYYLHTIKQGQTLYGISKAYGVSVEELTTVNPETSKGLKVGQIIKVPDTKT”, for which the “soluble fraction (log2)” value is -0.303.

For the sequence “HMSQDLVVLGDSMLNNALKAFHIDPNAIKKKYWDKLILDYHLKSKEEVLTEIALGKKINVMVAHQLTSIMD”, the “soluble fraction (log2)” value is -0.238.

Consider “HMSQEILSNQSIKDMIELGFEEQTIIDKIQTSTSDFDTTIEELKALKQLGASPTILSAMIKSIKK”, for which the “soluble fraction (log2)” value is -1.97.

Consider “HMSQLDITEARIVVSGGLGMQGPENFKLLEELAKVLGGAVGASRPVVDNGWREYSNQVGQTGKIVAPELYV”, for which the “soluble fraction (log2)” value is -0.751.

In the case of “HMSQLETEEAKRIVLKDLLRLYNNYNIIELEEDEFDRFITYLNMPYDFLQKTSDYDLAVSIKRMYASY”, the “soluble fraction (log2)” value was -1.79.

In the case of “HMSQNISSTKLIPENIKIGMSVFVIPLQQKGIVQSLPNRSKEVLVQIGNAKINVKINNLKLIED”, the “soluble fraction (log2)” value was -0.238.

On to “HMSQNTHTIPSREDILGIFRSVNAPLDPQSLGKTLQVHADSMDVLVRRLKAMERDGQLKSDASGVFSLAD”, for which the “soluble fraction (log2)” value is 0.314.

As for “HMSQNVQDVFLNHVRKSKNPVTVFLVNGVKLQGIITWFDNFSVLLRREGHTQLVYKHAISTVMPSGPIQLF”, the “soluble fraction (log2)” value came out at 0.22.

“HMSQPALSYAFAKAQGVIVTALGDVAEVARRKGSQPQALAEVRRIAGRPLALREVDDAAFDRLLQDHYARS”: the “soluble fraction (log2)” value is -0.0203.

“HMSQQMSYSDFVKAVSARQIREAQIQGDKIYATDSTGNRLTIIRLDNDQRLVDDMINNDVNIIGLEE”: the “soluble fraction (log2)” value is -0.534.

For “HMSQSDLASAIGARVTIRLREASGGFRDIVGVLQRFGSGYGELINSKGEALTFSESEIAIWREVKA”, the “soluble fraction (log2)” value is 0.361.

Take “HMSQTELIIVEEEMDGERLDAFLAEQVEQLSRSAVKNLINEGQVLVNGAKQKASYHVREGDEISIEIPEPQ”: the “soluble fraction (log2)” value was -0.455.

With “HMSQTPDLQQERANLGDNADARIEAVDLWANKFFPEEHADAILQIGQTAKGIEALEFIMSKV”, the “soluble fraction (log2)” value was -0.345.

With “HMSQVLVRINQDLNIRSGPGAQYDIIAVYRSGAIASVIGTYNNWYKVNFELDSKSYTGWINGTFTSR”, the “soluble fraction (log2)” value was -0.245.

For “HMSQYELEDVEKQRLKFKNGDEKALWLLSDIYKDNSQSYEVRLAALRALSESRHPLIIFDIQSSVK”, the “soluble fraction (log2)” value is -0.898.

In the case of “HMSRAAQRLFMSQPPLSRHIRQLEDRLGVTLFVRHTRGLTLTEDGQRVLEMVRPLLDLQDKTYAALSQLT”, the “soluble fraction (log2)” value was no less than 0.43.

As for “HMSREMIKSELESISGLGKSGIEKLYTHFINIENIKSASLENIRNIPGISYKVADNIYKHFH”, the “soluble fraction (log2)” value is 0.385.

As to “HMSRLGINTTIEDIKMVGKIIMPLLKQGQSVYQILASHPEIPYSEKTLYSYIEDNIFKDAGIDISVFDL”, the “soluble fraction (log2)” value is -0.491.

With “HMSRLLERARDLMAKPGAWLSAEGGAYALRLSPDRRSRISLTLTETEFRALIDQPGLRVRPGGGWSGRA”, the “soluble fraction (log2)” value is -0.484.

Take “HMSRMGDSIKSLRSRNNMSQDALAEKLNVTRQAISNWENSKTQPDADTLKNLGIIFNVTVDEIINNDF”: the “soluble fraction (log2)” value is -0.587.

As for “HMSRQREWIYDYIQSHPDRHMSVEEIYEGLKAENREVSVATVYRNLKILQDENRIASLMLESGKQVFDK”, the “soluble fraction (log2)” value is -0.0969.

Regarding “HMSRREEALIALAQRVARQVARTKQPVTLEPMPANERRVIHVALRDNPDVETRSSGEGDQRRVTVYPRQ”, the “soluble fraction (log2)” value came to 0.202.

Regarding “HMSRRIEIELTSSRPDGSWTWRAAGAREPKGVLDGTLLSQGSKPGDVVKAEAEFDIDGITIVSITQ”, the “soluble fraction (log2)” value came to 0.0267.

For the sequence “HMSRSKLNRLDKIKKMLIAQTGISIKEFSASLNVSEITIRRDLNLLEEQGFIRLVNGVAIYRM”, the “soluble fraction (log2)” value is -0.315.

“HMSRSLEIDVLVKALLEQDRRKFMLVTDGTADVTVRYNNALPSLFREGQGVVAEGLMDNGKFIATNVLAK”: the “soluble fraction (log2)” value was -0.793.

With “HMSRSLLAALEKLRESHTGSLPASVLSSAQRRSLESFAQTTKSVQMRPSGRGVVFAIINPEVVDKHWRELS”, the “soluble fraction (log2)” value was 0.22.

For the sequence “HMSRSSQMVNFIRLLSQEKKVSVNSIFSSSVQLSDGIIVKINDFYYRVNLSLDQKTYSLVEVS”, the “soluble fraction (log2)” value came out at 0.12.

For the sequence “HMSRVKQERLNRFVEAFEAYFRSVHPGEIDVEYLKSDEFGDIFESILHRVMHTASEEKMHRFKKILLNEM”, the “soluble fraction (log2)” value was -1.39.

“HMSSADIPFSRFIDDVEAQRVEKVTIDGVNVTGRYRSDGAAFKTIIPSQYDGLVPILRQNKVDITVKDA”: the “soluble fraction (log2)” value turned out to be 0.41.

As to “HMSSAMDMISRDVRNADSISISTTTYSKKIDLYNFDRNGDIEELHSYSAKNDLGILYNDEPI”, the “soluble fraction (log2)” value came to 0.191.

Turning to “HMSSANIKLDPLERQATQQIINNIKRKYPNATIENLQEVANDAIATMRQPEFSNYTVDKFVSYFLSM”, the “soluble fraction (log2)” value was -0.429.

As for “HMSSARKVTVRGVRELPGIFMEKAEILDDGVRFFYRGEMEKLIGALQGLPIRDLTITEPDLEEVFLHFY”, the “soluble fraction (log2)” value was -1.43.

With “HMSSASETQYELALQAMRDGDNDAALRSLSTALASGFSDWQRIDEEPLLAALANDVRFQVLRSRWK”, the “soluble fraction (log2)” value was -0.92.

“HMSSDLVDYLVKYVAIVDNQEIEIADSKIGTAELGTTVSEVAKTVGNYYPKATVLSVKITGRNQEIVFEY”: the “soluble fraction (log2)” value was -1.8.

In the case of “HMSSEPYISLPRGAAHDAYPLSTKAVAAQLGMSEVWLANLRSKGKGPRYVRVGTRVFYSPEDVAQWRRAT”, the “soluble fraction (log2)” value was no less than 0.43.

For the sequence “HMSSESIIIKKLIEEFIHNENKYSPLSDEKLSYLLKNKGFSVARRTVAKYRDELGILSTRERKIKI”, the “soluble fraction (log2)” value is 0.393.

Consider “HMSSEYARFFSGNYYEVLGVAKNASYDEIKAAWKKLVKEYHPDLHPQRQEEFTKIIQKINEAYEYFKKMH”, for which the “soluble fraction (log2)” value is -0.201.

With “HMSSFFLIDVSQVRIGMYIQLDVGWMRHPFPVNSFRITNQEQLDTLRSLNLAQVRWSPAKSDL”, the “soluble fraction (log2)” value is -1.

As to “HMSSFIEAIKQSGTDSLDVIMKNGRVYRYVGIDADRLGYLLEPHQQKLSLEESIGRFYIDYIKGIYEAIE”, the “soluble fraction (log2)” value was -1.05.

On to “HMSSGNLESLLNKLHNEDYFVRLDAVKALGALGDPGAIDYLIEMLSENGIMRGWVANSLAALGEAQWKKII”, for which the “soluble fraction (log2)” value was -1.44.

“HMSSHSAEAVRHRIKSMIDHEARDGDVLSDDRIVELLNQAGIDIARRTVAKYREALRIPSSVERKRRLKA”: the “soluble fraction (log2)” value amounted to 0.0173.

On to “HMSSKRDQFIVLGQEILEKMFKNEGLEFSEKGLLAVMPNFEAESINDIYAKVGEGLISGWDVMKAVYPAY”, for which the “soluble fraction (log2)” value is -0.841.

On to “HMSSKSLAALSPQEYRLLPLVAEGKTNKEIASALALSDKTVKNYLANIFSKLGITRRTQAATLYARAL”, for which the “soluble fraction (log2)” value was 0.252.

In the case of “HMSSKYLKIYNDIVGKIDSGIFEANTKLPSESQLMDEYNVSRYTVRKSLNLLEQNGYIEKSKGKGSFVLDM”, the “soluble fraction (log2)” value is -0.1.

On to “HMSSLQFVTLTLMEGHAWVGREIQELLMPPQMRIALIRRGDSQVIPKGSTILESADELILSAIEYQG”, for which the “soluble fraction (log2)” value is -2.51.
